Test results taken from US20190375831A1.

Experiments:
[1] = biological target: recombinant PfCSP (rPfCSP, residues 21-375) (Plasmodium falciparum) (UniProt P19597); test: biolayer interferometry, biotinylated CSP on the sensor, whole IgG in solution; apparent KD
[2] = biological target: recombinant PfCSP (rPfCSP, residues 21-375) (Plasmodium falciparum) (UniProt P19597); test: ELISA on coated rPfCSP, OD405nm
[3] = biological target: recombinant PfCSP (rPfCSP, residues 21-375) (Plasmodium falciparum) (UniProt P19597)

Sequence of recombinant PfCSP (rPfCSP, residues 21-375) (Plasmodium falciparum) (P19597 21-375): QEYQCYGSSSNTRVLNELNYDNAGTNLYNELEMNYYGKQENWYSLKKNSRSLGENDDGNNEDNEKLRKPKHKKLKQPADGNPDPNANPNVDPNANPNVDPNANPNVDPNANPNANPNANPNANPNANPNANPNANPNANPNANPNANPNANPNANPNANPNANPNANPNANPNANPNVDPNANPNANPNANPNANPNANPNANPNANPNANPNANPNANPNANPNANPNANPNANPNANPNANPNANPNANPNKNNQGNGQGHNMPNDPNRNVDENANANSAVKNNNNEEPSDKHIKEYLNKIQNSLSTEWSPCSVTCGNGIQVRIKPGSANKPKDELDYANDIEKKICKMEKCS

mAb2A10 (antibody) showed a Kd [1] of 0.15 nM and an EC50 (read off the curve) [2] of 0.04 µg/mL.

mAb CIS43 (antibody) showed a Kd [1] of 0.91 nM, an EC50 (read off the curve) [2] of 0.003 µg/mL and a -TΔS1 [3] of 8.4 kcal/mol. The -TΔS2 [3] was 0.1 kcal/mol, the N1 (stoichiometry) [3] was 1.2 and the N2 (stoichiometry) [3] was 5.1. It also gave a ΔH1 [3] of -19.5 kcal/mol and a ΔH2 [3] of -10.2 kcal/mol.
